Laboratory results as given in a protein production outcome set (Wang et al. 2014).

experiment: label from the status in PepcDB records
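Also: failed if final PepcDB status was selected cloned or expressed and not failed if soluble or beyond.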

Sequence | protein production
MEGNKSLVVAHAQRCVVLRFLKFPPNKKKTSEEILQHLQNIVDFGKNVMKDFLGENYVHCGEVVQLPLEFVKQLCLKIQCERPESRCDKDLDTFSGYAMCLPNLTRLQTFHFAEHRPILCVEIKPKCGFIPFSNDVTHEMKHKVCRYCMHQHLKVATGKWKKISKYCPLDLYSGNKQRMHFALRSLLQETQNNLRIFKNGELIYGCGDARSPVADLKELAHHLKPFFFPSNGLASGPHCTKAVIRELVHVITRVLLSSSEKARAGALRLGLQGPRVCEASPFSRSLHNQGKNTSEHSGLPKGCLLYKTLQVQMLDQLDIEGLYPLYKRVEQYLEEFPEERKTLQIDGPYDEVFYQKLLDLSTEDDGTVAFALTKVQQYRVAMTAKDCSIMIALSPCLEHHHHHH | failed
MEGQENKVLFGLENVHYATYSETDGVITYDTPKPLPGGVEISVEPQGDMIKFYADNIVYYQAPNNQGYEGTLTIASIPEGFATDCLGEELDTVDGVLTEKSDAKPKPFALLFEFDGDVKSVRQVLYNCTASRPTVASSTLEHHHHHH | not failed
MEHDERTHVPVELRAAGVVLLNERGDILLVQEKGIPGHPEKAGLWHIPSGAVEDGENPQDAAVREACEETGLRVRPVKFLGAYLGRFPDGVLILRHVWLAEPEPGQTLAPAFTDEIAEASFVSREDFAQLYAAGQIRMYQTKLFYADALREKGFPALPV | not failed
MEHPLIRIVILAVLAYVGYALLCFLVQRTIIYPGRSLSVAGQPPDLPDIHPLWLTTPYGHVESWFLPATGSVAGDRRPVVLFFHGNGEVIDVLPDQAEGFRRMGMHVMLVEYPGYGRSGGSPSEEGITAAAVAAYDELVRRSDTDSGRMIAFGRSLGCGAACALSLRRPLAALILQSPFTSTRPFARQMLLPGFLARDVFDNRKALESYGGAVLILHGTEDDIIPVGHGRELARTVRRGCLIELRCGHNDCPPDWLEFWRIIEGFLEQEGVSGRK | failed
MEIFFTILILTLVVSLSGVVTRILPFQVPLPLMQIALGAILAWPQFGLHVDFNPELFMVLFIPPLLFADGWKTPTREFLRHGREIIGLALVLVLITVVGIGYFIYWMVPGMPLIAAFALAAVLSPTDAVALSGIVGEGRIPKKLMGILQGEALMNDASGLVSLKFAVAIAMGTMVFTVSGATLEFVQVALGGLLAGVGVTWIFGKSLRVISRWSGDDAATQIVLLLLLPFASYLIAEHIGVSGILAAVAAGMTIGQSGVIRSAPLTMRMRANGVWSMLEFVFNGMVFIMLGLQLPDILETSVTQAELDPTVETWMLFTDIAIIYGALLLLRFSWLWVMRTYSVHIQKKRPMVFAEFSTRELWIASFAGVRGAITLAGVLSIPLLLTDGTAFPSRYQLVFIATGVILFSLLCGVLALPFLLRGVVVADKAAHAKEIRMARMAVAEVAIKSMHKMEERLAADREENIDEQVLKEVSARVIGNLRRRLINKDDPENGLLIENLERRFRLTALNSERAELYHLRATQQISNETLQKMLRDLDLMEALLIENE | failed
MEIHSERKKRLSLSLLFKIIKDTVWGFIDDSVMRLSASLAYATLFSIIPFLSLLVTVGVFFHMDLANQLYVQLQPIVGPEVTEALRSIIENAENTDSSRSAAFVSLGISILGATTIFAEIQSSLNSIWGIKAVPKKSWLKFIKNRILSFSIILVFAFILLITFTITNIIGELSQKFIFKYPEVADSLVKVVGIIINMSVTTIIFTLIFKILPDAKIKSKDVCIGAVVTTILLLIGQWGISFYIGIANVGTVYGAAAFMVVFVTWIYYSSIIIYTGAEFTKAWANEMGGKIFPDEYAVATKTIEIHEDKPIE | failed
MEIILNSGGTFVILAAVVGFFMAWGIGANDVANAMGTSVGSKALTIKQAIIIAMIFEFAGAYLAGGEVTSTIRKGIIDASYFVDSPELLVYGMISALFAAATWLLIASALGWPVSTTHSIVGAIVGFAAVGVSTDAVEWGKVVGIVGSWIITPLISGIIAFIIFNSAQKLIFDTDKPLQQAKRWVPAYMFLAGFVLSLVTIKKGLKHIGLENVNLGFVNFEIKGAGGFYLAAIVAIIVAIIGKFFISRLKFDENLAKEAHYVNVEKVFAILMIVTACAMAFAHGSNDVANAIGPLAAVVSIVEHDGQIAAKSAIAWWILPLGGFGIVAGLALFGHKVIATIGQGITHLTPSRGFAAELAAASTVVIASGAGLPISTTQTLVGAVLGVGMARGIAAINLGVVRNIVVSWVITLPVGAGLSIVFFWIMQATFS | failed
MEIINLTYIPLGVYNYYKSNNQEVKMQTIDISELELLTESENPVIVDVREDFEYNSGHVPNAKNIPLSQLEERYAEITDGTYLICQSGARSARACQYLSTKGIDTINISGGTIAWNGP | failed
MEIKPGLSALVTGGASGIGRALCLALAEKGVFVTVADFSEEKGQETTSLVREANAKFHQGLSFPSAIFVKCDVTNRGDLLAAFDKHLATFGTLDICINNAGISTPLRFDKDDTDGSKSWKHTINVDLIAVVEGTQLAIKAMKAKQKPGVIINMGSAAGLYPMPVDPIYAASKAGVVLFTRSLAYYRRQGIRINVLCPEFIKTDLAEAIDASILESIGGYMSMDMLIKGAFELITDEKKAGACLWITKRRGLEYWPTPMEETKYLVGSSSRKRPSFKVSTKIEFPQSFEKMIVHTLSHKFRSATRIVRAPLQLPIGPHQVLLKIIYAGVNASDVNFSSGRYFTGGSPKLPFDAGFEGVGLIAAVGESVKNLEVGTPAAVMTFGAYSEYMIVSSKHVLPVPRPDPEVVAMLTSGLTALIALEKAGQMKSGETVLVTAAAGGTGQFAVQLAKLSGNKVIATCGGSEKAKLLKELGVDRVIDYKSENIKTVLKKEFPKGVNIIYESVGGQMFDMCLNALAVYGRLIVIGMISQYQGEKGWEPAKYPGLCEKILAKSQTVAGFFLVQYSQLWKQNLDKLFNLYALGKLKVGIDQKKFIGLNAVADAVEYLHSGKSTGKVVVCIDPAFEQKTSRL | failed
MEISFTRVALLAAALFFVGCDQKPQPAKTHATEVTVLEGKTMGTFWRASIPGIDAKRSAELKEKIQTQLDADDQLLSTYKKDSALMRFNDSQSLSPWPVSEAMADIVTTSLRIGAKTDGAMDITVGPLVNLWGFGPEQQPVQIPSQEQIDAMKAKTGLQHLTVINQSHQQYLQKDLPDLYVDLSTVGEGYAADHLARLMEQEGISRYLVSVGGALNSRGMNGEGLPWRVAIQKPTDKENAVQAVVDINGHGISTSGSYRNYYELDGKRLSHVIDPQTGRPIEHNLVSVTVIAPTALEADAWDTGLMVLGPEKAKEVVRREGLAVYMITKEGDSFKTWMSPQFKSFLVSEKN | not failed
MEITIFGKGNMGQAIGHNFEIAGHEVTYYGSKDQATTLGEIVIMAVPYPALAALAKQYATQLKGKIVVDITNPLNFDTWDDLVVPADSSAAQELQQQLPDSQVLKAFNTTFAATLQSGQVNGKEPTTVLVAGNDDSAKQRFTRALADSPLEVKDAGKLKRARELEAMGFMQMTLAASEQIGWTGGFAVVK | failed
MEIVFLGGAKEVGASCVLIKAGGKNILLDSGIRMKEDKLPNLQLLRELGGADVCLISHAHLDHIGSLPLIAREYPHIFFYTNQPTKDLIKVLLYDSLKIMDAKEDEIPIYAEKNVEDLLDRTITYGFNYTFEPLEGIKVTFFPAGHILGASMIFIQTQEGSVLYTGDFSTDKQLTVDKASIPKIRPDVVICESTYGDRLHTNRNYEEERLFNSIYEFISKGGKVLIPAFAIGRAQEIILILRNYMKKKKVEFNVFIDGMVREVIRVYKNNPTFLSSRYYKKVLKGEEIFLSDNIDIITDKKQREEIMSSSDPCVIISSSGMLTGGPSVFYAEKLVENQNALIAITGYQDEESPGRKLLELTELPESERKIELNGKEYEVKCKVEKYGLSAHADRDSILGFLAMLKPKTVVFAHGSEEAISQLSDMAIKEIESAVLIPQNGEMNTISIEKPRRQLSFFNVKKLSNIEPLNEENIKSLWEYLLESKQEANHITAEHAILIWNGKQFLERDEVNRVFELLKSSPYFEQNPRKPYLFRILSRTEVENKLKPKPMEQNKMRELAFEMFKDFGLYKVGMDNENVVVTFYFNFPHIANRLEDKIKEFEEKTLWKVEVNPNINLTYAQKYLQKLLEDEGVKLLKFSYNPVINAIVVKPNKEFDSMKELCSKFLDETGIELIFDIENKEDCTARLQNKDRMEQNKALLLIDLYFENEKDKVYKKSIKEGGKYIELSFVTPFVAEKYKDKLNELSQKTGWEIRISQTINQVEMVNILKDILAKYNIDLIKNPSIYPSIREVRIKLAGEIDSNIVNEIANEFYDRTGFYLKI | failed
MEKAGMHRTLNYRLRFDIPLVGKDCEYALVQDLPASVYISTDELDDLQRLKRLNAIYPKFVNIEVATERAQPFSVLLRGTPKITESLALPVHFRYHAPSDKRLAATVAIPLPELYLNCPMADSALIENELVARPDKLYCLNAPESRFDENHIKDGQPTTMANLERCNWRRVHVDCQLKMPLRAEIPVGHASAYGPVLCGTILLGWSLALWTIIHSMANTRRINQRLNEQRLLQQKVK | failed
MEKEMEDKEEFDEGEIEYTSYAGEHHLPLIMSLVDQELSEPYSIFTYRYFVYLWPQLCFLAFHKGKCVGTIVCKMGDHRQTFRGYIAMLVVIKPYRGRGIASELVTRAIKAMMESGCEEVTLEAEVSNKGALALYGRLGFIRAKRLYHYYLNGMDAFRLKLLFPKPRVPQIPSQVQTQQEYETFPRPRVP | failed
MEKFMYSLGVSKKDKIYKDLLKIAIPTAIEFFLFNFISLTDNAMVAYLGDYPVAGVSLANKFFELFVTIGFSMAGAYNIIATRQYNQGDFKSFRNTFFISILTIILFSFPFILISIVNPFFLLRLISNDERAVYYGAAYLNIAIFSFVFAIIKGLIANALKVVEIVKFQVYISVFSVLLNFVFNYIFIFVFHMGVVGAAIATTVIRTLELIVYLVCTAFNKNSILHFKLDDLNINIKPFAQLIKFFIPILLNEFAWFFGYLVLTSIFIGIDTHKYAAYSISFSIYFIIFNIIHSFCISLNIMMGYEMHNSKKEIMKVAIYLSKIGLKLAFLTSFVLFIFSFFAPYIFYTLKYSHLIGIILRYSSVSAFFMALAFQYLFGFFRAGASPSFGAIMEGSVTFVYTIPIAFVLANYTNLPFEIIVFIPSLEDAIKLVVSLPYFYSERWIKSV | failed
MEKILDLLMSFVKEDEGKLDLASFPLRNTTAGAHLLLKTENVVASGIEVSRMFLEKMGLLSKFNVEDGEYLEGTGVIGEIEGNTYKLLVAERTLLNVLSVMFSVATTTRRFAEKLKHAKIAATRKILPGLGVLQKIAVVHGGGDPHRLDLSGCVMIKDNHLKMYGSAERAVQEVRKIIPFTTKIEVEVENLEDALRAVEAGADIVMLDNLSPEEVKDISRRIKDINPNVIVEVSGGITEENVSLYDFETVDVISSSRLTLQEVFVDLSLEIQR | not failed
MEKILDNIDKSMNIIISLFTIYNLIRGFWLNKNKKQLEKQREDLQKKLHQQNISNNNNISNSFNTTIHNETNIKNEIIDINQDLKNTLKSRNTSRNIAYIFTIFLFVLSFILYVIHYFKEQFKGYTIADFINSFIPSFEKLTDILTISYKSAIIVLLIINLIIAVLVILISMLKLKLKWRVAVSSLLYGILNYYVLISASSIDSKDIHYSIQEPKLSFIISFLYLMVGFITAFFSNYILYSYLFNSEFEDELFNQTIKRFFIWLALTVLFAFLSFINYHNGLQITLNFIKNLLNLI | failed
MEKKLKRRESMSTTAAESPPAKRRRTVTGNENSALIEGLPDHISEICLSLVHRPSLLSAVCTRWRRLLYSPEFPSFPSLYALFVDSTSDTGRVNPSVRFMCFNPVSSKWYPLPPPPPDPPLHRILYRHPSFISFNLPIQCVSAAGKLILIAGSNQQLSPAISHPLIFDPISSSWSSGPRIGSPRRWCATGACDGAIYIASGISSQFSSTVAKSVEKLDLTEQNRNNHRFNWEKLRDMRDLRFSREAIDAVGYRRKLLMVNVKGDAVKEGAIYDVVKDDWEPMPEEMLVGWRGPVAAMEEEILYSVDERRGTVRKYDDEKREWREVVVVEGGEEMLKGATQVTADSGKLCVVTGDGKIVVVDVAAEPAKIWNVEIPDGLEPVSVHVLPRMSQPNFC | failed
